Source: the DeepSol protein solubility set

Assay: soluble on expression in E. coli; label from the status in PepcDB or PDB records

| Sequence | soluble on expression in E. coli |
| --- | --- |
| MSLNIHPMWNTYPTLSKELTTTLRLMEQAVQIDNQEIQAAVHDMIHSGGKLLRPAYQLLFSYFGEQRDPKKATALAASIELLHTATLVHDDIVDEADTRRGLPTLRSRFGNSTAVYTGDYLFVCCFKLLSDYSSSLKSIQLNSRSMEKVLTGELGQMDNRYNFEVTIDQYLKNISGKTAELFALSCFVGAYESGTSQRFAKRCGEIGENIGLAFQIIDDILDYTQTADAIGKPVLEDVRQGVYSLPLIYALEANREVLLPLLMKKEALTDEETQEIYRLVHELGGVEKAQELATHYTEKALKEISKLPETKAQAKEQLYEITQTILTREGHHHHHH | soluble |
| MAHHHHHHMKRTLSLGIEGSANKIGVGVVDQSGTVLSNVRETYITPPGSGFLPRETAIHHSQHVLQVVQRAMHDAAVTPADIDIISYTKGPGMGGPLSVGCTVAKTLSLLWGKPLVGVNHCVGHIEMGRVVTKSENPVVLYVSGGNTQVIAYADHRYRIFGETIDIAVGNCLDRVARLLNISNDPAPGYNIEQKAKKGKCYIRLPYTVKGMDMSFTGILSYIEQLVHHPQFSDSDVREMSKKRHKAAPSLTSMPVPPGETLNTDDICFSLQETIFAMLVEVTERAMSQIKTSDVLIVGGVGCNRRLQEMMQLMAAERGGRCFGMDQRYCIDNGCMIAYAGLLQYLSGSFTTMAEATVTQRFRTDEVYVTWRD | not soluble |
| MTEHTGLWLYAVADQLPDGRLPCPAGIDEAPVEAIAHDGLAAVVSPVDLHHYGEEALARRLEDFDWLAATANRHHAVIEAVHHLSTTVPMRLATVYTEPRRVSTLLAEQHDLLRRALDSVAGHTEWGVKAFAVNRPQAPPAAGGEESGAAYLRRRRAELANADAVRQEVWDAAQHAFHELGLLAVAQRRHRPQDAKLTGKPEPMLLNGSFLVEDTEQDAFTKAVSTLTADHPELEIQLSGPWPPYSFAGLAVEA | not soluble |
| MGSDKIHHHHHHMKKTIYKVLVSFYQYVGLGKKFHPSHDTVLIIGGSSNELGIELCETFIEDYHTKVINIDTIDSINGKNARRSEKLYTFISCKDFSDIKCLEESMLYLQNLEIIPTVLINNMQEGIESTLLKEDKFLRLDEESLNEFEKIVRYNLQSVILITKFCLSNIFPKVQAEAQEKAKGFYIVNISSVLTLKPCKSGTHFITSKCGINSFHDGITSELKLKDSNLNVKTLIAYLPSFESEAHWKRLSPSISKHLVHCLLEGRYGDTILESKRSIGDILLITGFKSSFT | not soluble |
| MGSDKIHHHHHHMSDLQSLQPKLLWQWFDQICAIPHPSYKEEQLAQFIINWAKTKGFFAERDEVGNVLIRKPATVGMENRKPVVLQAHLDMVPQANEGTNHNFDQDPILPYIDGDWVKAKGTTLGADNGIGMASALAVLESNDIAHPELEVLLTMTEERGMEGAIGLRPNWLRSEILINTDTEENGEIYIGCAGGENADLELPIEYQVNNFEHCYQVVLKGLRGGHSGVDIHTGRANAIKVLLRFLAELQQNQPHFDFTLANIRGGSIRNAIPRESVATLVFNGDITVLQSAVQKFADVIKAELALTEPNLIFTLEKVEKPQQVFSSQCTKNIIHCLNVLPNGVVRNSDVIENVVETSLSIGVLKTEDNFVRSTMLVRSLIESGKSYVASLLKSLASLAQGNINLSGDYPGWEPQSHSDILDLTKTIYAQVLGTDPEIKVIHAGLECGLLKKIYPTIDMVSIGPTIRNAHSPDEKVHIPAVETYWKVLTGILAHIPSR | not soluble |
| MGSDKIHHHHHHMTVPPRVSAGEVFQHFRGTSPLTRARLSALTGLSRAATTDRMRTLASRGLIGPANEAPSTGGRPSAQFRLMPNSGAVMSVLLGASEAKVQAFDLSGQPLSAAKPVETVRGGYAAILDSCLASAYSLLDSMDDISGQLVATGVVLDEGAPDLDWPEYFAGRPVVVDSALGAMATAEALSRTPRPQNMLFLDVGKTIGCAVLVHGRTMGGFRTSKEAFGHTPGKGTPTLPCACGIMNCLQAIAGEEAIIAGLSSDLADEPDAISGAVRRSDAAAVSALRQAGRDIGDTLLGSIHLLQPEFITVRTRWPGAADFLLAGLREAIYASGVPAVTENLVLASSTTGSPATGIALRALDAGLAVESVDRLLSAPPNLSGQRNYWPAPLKSIDRQRHAS | not soluble |
| MMKEQNIPQDSLIAGYLPADYCDSFSRNVVSEKAITSDEFFDMAFNHSPGWVNGLMKLRNAIVKPLGLEVGMRFADTICEQNAQEVVFGMPDKHLTFHASLWCGEKEPGGQTFTITTVVKFNNRLGRLYFFFIRPFHKVIIRSMLKRVAKRLK | not soluble |
| MGIKHLNLTVADVVAAREFLEKYFGLTCSGTRGNAFAVMRDNDGFILTLMKGKEVQYPKTFHVGFPQESEEQVDKINQRLKEDGFLVEPPKHAHAYTFYVEAPGGFTIEVMC | soluble |
| MNPNTVPTPARGAIRWEAHTCLPLLPNQDMSALLRYRDNGFHHVSVNVGMDMTAVGDVMQVIAGFRQWLIKHPENFMLAGTLADLQRARVQDKLAVSFDLEGSNMLLQDQAMVRLYADLGVRQMLLAYNLDNSCAGGCHGSGMGLTALGREFVGAINSAGIVMDCSHASKRASMEIIELSQRPVVFSHTNIKAVYDHPRTVDDEQIMACVESGGVIGLTGMGIFLGDPQASVEAFVRQIDYLAERAGTAHIGLGLDIELHPDDKDLAEGVNEDDWWPKEFYGGINGHRQLQPEALGQVAEALLRIGYDAAQINGIFGGNFMRVAQATWP | not soluble |
| MSQATARHSVTSSPVSTGQLEEPISRLRVPTEDELPQKLRDIHMRIRKKFGFVPNFLTALSANPGTALRIMAFYEHLFDQSNSHLSASERELIAVVTSVATGCSYCVFNHRPALAAALGDRVLADRIARNHNDVTLAPRERALADLAQKLAATPHSVGSDDFARLRAIGFSEPAILEVLEVSAFFSYGNRLTIALNVLPDPQFFVSAMAGDPLEHHHHHH | not soluble |
| MEQSIFRDEKGDCPIVYLAGTLISIGSKPSARYGVCWGAGHAKNEGGPVAGSQTSLRAELTALRRTLEIALAEDITKLIIVFPSKMLGEQLEVWERRPEQHASFENSDILYRVEQLFGEAEARMYFSIDLPTPPDPRAHGYTKALQLARTMLVASRISRNSQITTVAIFAICEKEGKCDALAKYGVYWGQDDHRNEAGLVEDGQTSLRAIMCAVRSALRTAAMHGLKRVHFLTRRIDIINIIKKLAKGEEEDSPGKRNGAIFSDCSRLRSELLDISVKLVQKDVPCVELDRAEAITRGATKKLKKRDNEYERLDRQLLMIESSSSASSPESQPKIENIGDKCPTAVILNLLVRPKFGHSKVSYAVYWGENDEKNERGPVNMRAHAFQADLYAAMCALKKARSKNIRKLHLLTTSEYFKNWMENVQKKNELINDRYDVMMEFQLLLQNFESVTIEVVNSSTQGARRKMYEDAQTFFAGRNESIQKQRSIEDIQLEDPIENNIVEAESVNPESSNQIQVVYVGGACRGRGYANALAVYSVVWPIGEYGCSQGPVTGIVNNIRAKLAAVKSALQQAEQLGIASLIIRTNDQMVHDTLILQNSPIGNIDLMDDIESYKSRMRFVAYQLTTGDYARGNVVADRLAEVIVESIF | soluble |
| MSLKIIIAPAKIMKLDRDSFPVQSTPEFLKKTRILEKFLKSRTRDQLETLWHASDKVVEQSLFQLKNMDLDTNLTPAILAFSGIQYQYMAPDLFTQPALDYIQKNLRILSGFYGMLRPFDGICPYRLELNTKMVGFRDYSLYHFWDEDIANSLFKEDQVVINLASKQYMRLVKPYLNSARRMITVDFQELKNDKWKTVGVHAKMARGEMVRFMAEKQIKNPADLRDFHDFDFQFVPEVSSDDHYIFRTDFDFTRHEGHHHHHH | soluble |
| SKLLDKDGKVFAEVGTERREYIEYKDIPETLKNAILTTEDARFYEHDGIDPIRLGGAVVANVTDGFGAEGASTLSQQIIKMSYLDYTNKTLARKAQEAWLALQLEEKYSKNDILEIYVNKVYMSDRVHGMQTAAEHYFGKNVKDLTLAETALLAGMPQSPNNYNPYDHP | not soluble |
| SLLASTRHIARGDTGNVSVRIRRVTTTRAGGVSAPPFDTFNLGDHVGDDPAAVAANRARLAAAIGLPGNRVVWMNQVHGDRVELVDQPRNTALDDTDGLVTATPRLALAVVTADCVPVLMADARAGIAAAVHAGRAGAQRGVVVRALEVMLSLGAQVRDISALLGPAVSGRNYEVPAAMADEVEAALPGSRTTTAAGTPGVDLRAGIACQLRDLGVESIDVDPRCTVADPTLFSHRRDAPTGRFASLVWME | not soluble |
| MNKAQIEIYYCRQCNWMLRSAWLSQELLHTFSEEIEYVALHPDTGGRFEIFCNGVQIWERKQEGGFPEAKVLKQRVRDLIDPERDLGHVDRPSSTQSLEHHHHHH | soluble |
| MVGINNWSSNLDAYRILQEAQSLTEEPPHFDTAFPIEPESIAPPEHHNHRYVIGQEEHRVRRLAANRNKGRPSARAFGNARNNSTRN | not soluble |
| GPGSMSTPNLDALLGVPLAAELVARAGGLLALCKLSDAALRMLGTEEFQSIASSSRARQLHAGLLLKAPLFTNAFGDEEEVDTTDRKAAQKGAAQLGRKCALVAKADLAGAFSDGSLGEAEKEKLNAAFTRLLAEGKVTAEDTQALAAPFVYVHGDAAKHRRGGVKERKKRESQQESISVVARATQRVRMGVSEEEQVQQLLQREDIRSEFAKERAQQLLKESRKRARESVHDEYDDLQNISL | not soluble |
| NATQINEELYRLLEDTEILNQEITEGLLKGFEVPDAGVAIQLSKRDVVYPARILIIVLSEMWRFGLTKQSESFLAQVLTTIQKVVTQLKGNDLIPSGVFWLANVRELYSFVVFALNSILTEETFKNGMTDEEYKEYVSLVTELKDDFEALSYNIYNIWLKKLQKQLQKKAINAVVISESLPGFSAGETSGFLNKIFANTEEYTMDDILTFFNSIYWCMKSFHIENEVFHAVVTTLLNYVDAICFNELIMKRNFLSWKRGLQLNYNVTRLEEWCKTHGLTDGTECLQHLIQTAKLLQVRKYTIEDIDILRGICYSLTPAQLQKLISQYQVADYESPIPQEILRYVADIVKKEAALSSSGNDSKGHEHSSSIFITPETGPFTDPFSLIKTRKFDQVEAYIPAWLSLPSTKRIVDLVAQQVV | soluble |
| PSPQSLDGKNLNFDQQLVIFESENCEFCAQFDRDILAHWQADIPMVATKNTNPPADWTLDKPLFAAPTIVLFREGKEVVRYTGYTGEKENFWQWL | not soluble |
| MDEGIRASGGIRACQTGKQKQGRKRPVTGKKRIVVGMSGGVDSSVTAWLLKQQGHEVIGVFMQNWEDDNDDEYCSIKQDALDAMSVADIVGIDMEIVNFAKEYKDRVFSYFLKEYSAGRTPNPDVLCNAEIKFKAFLDYAMELGADCIATGHYARKLEQDGTHYLMKAVDHTKDQSYFLYRLQQHQLAKAIFPLGDIRKTEVRRLAEEAGLPTAAKKDSTGICFIGERPFREFLQRYLPTSPGQMVTPDGKVVGEHIGLMYYTLGQRKGLTIGGSRDGNGEPWFVAGKDIPGNKLIVVQGHDHPLLLKPTLSMADLSWTLPDAPAPGEYSAKNRYRMADAACTLSPIVDGQASLTFQEKQWAVTPGQSAVLYHGDICLGGGIIQLEHHHHHH | not soluble |
